# From the supplement of paper PMC6757056
# ± gives the standard deviation of the averaged measurements.
# B1: library; a variant is named by its letters at N, in order (parent)
# chain: GCUGUCACCGGUGCUUGGUACGUUAUAUUCAGCCGGUCUGAUGAGUCUNNNNNNAGACGAAACAGC
# Legend:
# [1] = variants of: B1; assay: FACS-Seq fitted mean relative fluorescence mCherry/BFP without ligand (log10 relative fluorescence); HEK293T overexpressing SLC46A1; higher = higher reporter protein expression; conditions: without (6R,S)-folinic acid; ligand present: no
# Method in brief: (§1)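 The ribozyme switch sat in an mCherry reporter, delivered by lentivirus into HEK293T libraries along with an EF1α-BFP marker. Enriched cells were incubated 48 h with or without ligand, sorted into 6 bins by mCherry/BFP, and bin genomic DNA was PCR-amplified, barcoded and MiSeq-sequenced. Fluorescence equals the fitted normal mean of the bin counts after normalization. Those log10(mCherry/BFP) means were scaled to five spiked-in control ribozymes.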
# [2] = variants of: B1; assay: normalized RNA/DNA level without ligand (relative to sTRSVctl = 100) (log10 (% of sTRSVctl)); HEK293T overexpressing SLC46A1; higher = less ribozyme self-cleavage, higher mRNA level; conditions: without (6R,S)-folinic acid; ligand present: no
# Method in brief: (§2)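 Ribozyme switch library plasmids linked to reporters were introduced into HEK293T cells at 4 µg per 6-well well, with ligand, if any, added 1 h before. Total RNA was extracted with EDTA 72 h later, reverse-transcribed, amplified, barcoded and sequenced. RNA level was computed from RNA over DNA reads relative to a spiked-in non-cleaving sequence or the top sequences, then scaled and log-transformed. The top set was 25 sequences, values were ×100 and log10, and the cutoff was ≥100 DNA reads.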
# [3] = variants of: B1; assay: FACS-Seq fitted mean relative fluorescence mCherry/BFP with ligand (log10 relative fluorescence); HEK293T overexpressing SLC46A1; ligand concentration (+) FACS-Seq: 6 mM; higher = higher reporter protein expression; conditions: with (6R,S)-folinic acid; ligand present: yes
# Method in brief: as §1
# [4] = variants of: B1; assay: normalized RNA/DNA level with ligand (relative to sTRSVctl = 100) (log10 (% of sTRSVctl)); HEK293T overexpressing SLC46A1; ligand concentration (+) RNA-Seq: 6 mM; higher = less ribozyme self-cleavage, higher mRNA level; conditions: with (6R,S)-folinic acid; ligand present: yes
# Method in brief: as §2
Variant,FACS-Seq fitted mean (log10) [1],normalized RNA/DNA level without ligand (log10) [2],FACS-Seq fitted mean (log10) [3],normalized RNA/DNA level with ligand (log10) [4]
AUGAGA,0.466 ± 0.025,1.944 ± 0.014,0.537 ± 0.077,2.014 ± 0.016
CUGAGA,-0.345 ± 0.055,1.985 ± 0.0047,-0.472 ± 0.062,1.99 ± 0.035
GUGAGA,0.474 ± 0.23,1.973 ± 0.013,0.54 ± 0.081,2.02 ± 0.022
UUGAGA,0.325 ± 0.084,1.841 ± 0.013,0.468 ± 0.01,1.993 ± 0.0082
AUGAGC,-0.023 ± 0.066,1.998 ± 0.0094,0.192 ± 0.3,2.03 ± 0.028
GUGAGG,0.394 ± 0.093,1.872 ± 0.0053,0.497 ± 0.2,2.015 ± 0.0075
UUGAGG,0.275 ± 0.1,1.86 ± 0.025,0.336 ± 0.18,2.006 ± 0.0026
AUGAGU,0.287 ± 0.0094,1.788 ± 0.017,0.639 ± 0.18,1.97 ± 0.04
GUGAUA,0.573 ± 0.073,1.97 ± 0.017,0.371 ± 0.036,2 ± 0.022
AUGAUG,0.408 ± 0.071,1.87 ± 0.023,0.544 ± 0.23,1.98 ± 0.023
UUGAUG,0.136 ± 0.018,1.797 ± 0.0018,0.436 ± 0.22,1.99 ± 0.046
AUGAUU,0.418 ± 0.17,1.989 ± 0.0036,0.334 ± 0.023,2.02 ± 0.027
AUGCAA,0.349 ± 0.0069,1.9632 ± 0.00072,0.36 ± 0.083,1.976 ± 0.011
AUGCAC,0.724 ± 0.038,2.001 ± 0.0052,0.703 ± 0.1,2.014 ± 0.01
CUGCAG,0.542 ± 0.11,1.91 ± 0.021,0.679 ± 0.4,1.977 ± 0.0074
UUGCAG,0.439 ± 0.019,1.886 ± 0.0031,0.636 ± 0.033,2 ± 0.042
CUGCCC,0.494 ± 0.029,2.07 ± 0.041,0.403 ± 0.0067,2.06 ± 0.021
GUGCCG,0.617 ± 0.24,2.0438 ± 0.0018,0.702 ± 0.27,2.04 ± 0.052
AUGCGA,0.422 ± 0.019,1.979 ± 0.00081,0.569 ± 0.15,2.01 ± 0.035
GUGCGA,0.238 ± 0.11,1.999 ± 0.014,0.278 ± 0.38,2.02 ± 0.044
AUGCGG,0.0258 ± 0.11,1.939 ± 0.013,0.185 ± 0.22,2.02 ± 0.043
AUGCGU,0.523 ± 0.16,1.951 ± 0.016,0.63 ± 0.3,1.99 ± 0.031
GUGCGU,0.436 ± 0.15,1.9915 ± 0.0017,0.582 ± 0.16,2.008 ± 0.017
UUGCUA,0.353 ± 0.027,2.002 ± 0.0079,0.377 ± 0.051,2.04 ± 0.026

Variant,FACS-Seq fitted mean (log10) [1],normalized RNA/DNA level without ligand (log10) [2],FACS-Seq fitted mean (log10) [3],normalized RNA/DNA level with ligand (log10) [4]
GUGCUG,-0.457 ± 0.06,2.077 ± 0.012,-0.879 ± 0.14,2.05 ± 0.065
AUGGAA,0.0999 ± 0.019,1.919 ± 0.0071,-0.0772 ± 0.045,1.993 ± 0.0063
CUGGAA,0.184 ± 0.035,1.9175 ± 0.00021,0.243 ± 0.021,1.97 ± 0.028
UUGGAA,0.241 ± 0.03,1.9 ± 0.025,0.528 ± 0.17,1.99 ± 0.029
AUGGAC,0.279 ± 0.031,1.955 ± 0.0055,0.259 ± 0.12,1.99 ± 0.022
GUGGAC,0.143 ± 0.12,1.868 ± 0.016,-0.011 ± 0.21,1.975 ± 0.0039
AUGGAG,0.271 ± 0.039,1.735 ± 0.0043,0.622 ± 0.21,1.97 ± 0.02
UUGGAG,-0.00192 ± 0.0051,1.71 ± 0.035,0.315 ± 0.1,1.99 ± 0.016
CUGGAU,0.302 ± 0.025,1.966 ± 0.018,0.179 ± 0.028,2.02 ± 0.022
GUGGCA,0.0901 ± 0.037,2.011 ± 0.0084,0.458 ± 0.2,2.02 ± 0.042
GUGGCC,0.354 ± 0.0094,2.02 ± 0.029,0.72 ± 0.12,2.05 ± 0.023
AUGGCG,0.284 ± 0.024,1.91 ± 0.022,0.359 ± 0.058,2.04 ± 0.031
CUGGCU,0.556 ± 0.0076,2.033 ± 0.016,0.55 ± 0.13,2.02 ± 0.036
AUGGGA,0.263 ± 0.012,1.925 ± 0.015,0.269 ± 0.049,2.01 ± 0.03
CUGGGA,0.446 ± 0.08,2.006 ± 0.014,0.348 ± 0.35,2.03 ± 0.047
GUGGGA,-0.679 ± 0.016,2.018 ± 0.0036,-0.94 ± 0.38,2.03 ± 0.025
GUGGGC,0.414 ± 0.04,1.788 ± 0.0052,0.738 ± 0.17,1.98 ± 0.024
AUGGGG,0.139 ± 0.026,1.841 ± 0.0025,0.258 ± 0.36,2.03 ± 0.062
UUGGGG,0.207 ± 0.029,1.824 ± 0.0037,0.521 ± 0.12,2.02 ± 0.036
UUGGGU,0.184 ± 0.18,1.943 ± 0.0059,0.455 ± 0.16,1.98 ± 0.033
AUGGUA,0.132 ± 0.069,1.91 ± 0.0083,0.165 ± 0.17,1.98 ± 0.038
AUGGUG,0.433 ± 0.026,1.786 ± 0.011,0.485 ± 0.12,2.01 ± 0.024
GUGGUG,0.383 ± 0.21,1.92 ± 0.024,0.306 ± 0.32,2 ± 0.043
UUGGUG,0.364 ± 0.16,1.75 ± 0.031,0.52 ± 0.26,2.01 ± 0.053

Variant,FACS-Seq fitted mean (log10) [1],normalized RNA/DNA level without ligand (log10) [2],FACS-Seq fitted mean (log10) [3],normalized RNA/DNA level with ligand (log10) [4]
AUGGUU,0.245 ± 0.097,1.98 ± 0.026,0.136 ± 0.14,2.01 ± 0.027
GUGGUU,0.311 ± 0.089,2.014 ± 0.0041,0.443 ± 0.013,2.02 ± 0.037
GUGUAA,0.21 ± 0.21,1.957 ± 0.0042,0.383 ± 0.18,2 ± 0.041
GUGUAC,-0.753 ± 0.24,1.942 ± 0.0035,-0.684 ± 0.34,2.005 ± 0.0037
AUGUAG,0.508 ± 0.058,1.864 ± 0.016,0.615 ± 0.17,1.99 ± 0.035
GUGUAG,0.435 ± 0.018,1.899 ± 0.0022,0.514 ± 0.18,1.998 ± 0.016
UUGUAG,0.271 ± 0.0067,1.866 ± 0.0056,0.397 ± 0.18,1.992 ± 0.0089
CUGUAU,0.306 ± 0.094,1.981 ± 0.0073,0.479 ± 0.11,2 ± 0.021
UUGUAU,-0.387 ± 0.048,1.99 ± 0.02,-0.176 ± 0.12,2.014 ± 0.0072
GUGUCA,0.425 ± 0.12,2.008 ± 0.0044,0.477 ± 0.009,2.03 ± 0.033
GUGUGA,0.383 ± 0.041,1.9667 ± 0.00054,0.136 ± 0.21,2.038 ± 0.013
GUGUGC,-0.0812 ± 0.0037,1.758 ± 0.017,0.131 ± 0.14,1.979 ± 0.0082
AUGUGG,0.0386 ± 0.035,1.844 ± 0.0091,0.311 ± 0.041,2.01 ± 0.046
GUGUGU,0.164 ± 0.1,1.942 ± 0.0063,0.271 ± 0.083,2.02 ± 0.036
UUGUUA,0.514 ± 0.052,2.03 ± 0.014,0.793 ± 0.16,2.07 ± 0.031
AUUAAA,0.22 ± 0.063,1.974 ± 0.0062,0.296 ± 0.21,1.992 ± 0.0089
UUUAAG,0.386 ± 0.13,1.769 ± 0.0025,0.698 ± 0.2,1.96 ± 0.046
GUUACC,0.497 ± 0.022,2.047 ± 0.013,0.281 ± 0.23,2.03 ± 0.026
UUUACC,0.636 ± 0.0052,1.996 ± 0.018,0.724 ± 0.077,1.97 ± 0.036
UUUACU,0.0671 ± 0.017,2.032 ± 0.0085,-0.0776 ± 0.03,2.033 ± 0.013
AUUAGA,0.0629 ± 0.005,1.965 ± 0.004,-0.224 ± 0.063,2.01 ± 0.033
AUUAGG,0.125 ± 0.18,1.9 ± 0.023,0.123 ± 0.074,2.01 ± 0.028
